From paper doi:10.1101/2023.04.03.535215

Molecular target: SARS-CoV-2 S protein receptor-binding domain (SARS-CoV-2) (UniProt P0DTC2)
Assay: ELISA

Q: With “Native human surfactant protein A (from UniProt Q8IWL2 21-248) (natural protein)” as the substance, how does the percent decrease of binding in 10 mM EDTA read?
A: Its percent decrease of binding in 10 mM EDTA is 59%.
